Data on 8 molecules can be found in paper PMC3333781, “Systematic mapping of two component response regulators to gene targets in a model sulfate reducing bacterium”.

What all share (assay): EMSA; 10 mM Tris-HCl pH 7.5, 1 mM DTT, 50 mM KCl, 5 mM MgCl2, 25% glycerol, 1 ug/ml poly dI-dC, 50-100 fmol biotinylated DNA, 25-30 C, 20 min
Settings in all cases: protein: recombinant; tags: C-terminal V5-6xHis; chain copies: 2; label: 5'-biotin top strand

Data set [1] concerns the target T1, DVU0946 response regulator (Desulfovibrio vulgaris Hildenborough, UniProt Q72DI3 1-476).
T1 sequence: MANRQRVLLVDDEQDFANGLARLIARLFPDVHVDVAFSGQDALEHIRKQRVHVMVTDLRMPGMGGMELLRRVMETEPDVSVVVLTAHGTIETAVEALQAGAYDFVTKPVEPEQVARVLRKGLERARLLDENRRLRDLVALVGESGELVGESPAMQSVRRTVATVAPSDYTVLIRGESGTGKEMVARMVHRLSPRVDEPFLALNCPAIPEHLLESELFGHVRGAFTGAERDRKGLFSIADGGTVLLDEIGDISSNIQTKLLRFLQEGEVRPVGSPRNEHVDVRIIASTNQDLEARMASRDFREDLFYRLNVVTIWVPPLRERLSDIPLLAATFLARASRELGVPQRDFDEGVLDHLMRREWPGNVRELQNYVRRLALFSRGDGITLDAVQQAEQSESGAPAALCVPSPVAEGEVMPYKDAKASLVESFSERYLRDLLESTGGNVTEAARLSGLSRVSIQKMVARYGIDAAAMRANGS

The target of data set [2] is T2, DVU0539 response regulator (Desulfovibrio vulgaris Hildenborough, UniProt Q72EN8 1-467).
T2 sequence: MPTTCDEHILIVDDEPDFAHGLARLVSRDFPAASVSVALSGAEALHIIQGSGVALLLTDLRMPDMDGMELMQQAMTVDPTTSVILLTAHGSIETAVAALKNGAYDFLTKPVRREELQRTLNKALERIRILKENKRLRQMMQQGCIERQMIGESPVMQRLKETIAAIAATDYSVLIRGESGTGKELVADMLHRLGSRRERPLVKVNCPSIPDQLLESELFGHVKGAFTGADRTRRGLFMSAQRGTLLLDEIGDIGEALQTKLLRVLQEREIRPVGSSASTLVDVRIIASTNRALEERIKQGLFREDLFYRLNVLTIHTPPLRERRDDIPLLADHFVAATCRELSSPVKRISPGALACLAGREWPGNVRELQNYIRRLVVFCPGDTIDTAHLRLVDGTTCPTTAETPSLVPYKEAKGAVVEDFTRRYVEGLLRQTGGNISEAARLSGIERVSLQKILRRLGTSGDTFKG

The target of data set [3] is T3, DVU3305 response regulator (Desulfovibrio vulgaris Hildenborough, UniProt Q725X0 1-451).
T3 sequence: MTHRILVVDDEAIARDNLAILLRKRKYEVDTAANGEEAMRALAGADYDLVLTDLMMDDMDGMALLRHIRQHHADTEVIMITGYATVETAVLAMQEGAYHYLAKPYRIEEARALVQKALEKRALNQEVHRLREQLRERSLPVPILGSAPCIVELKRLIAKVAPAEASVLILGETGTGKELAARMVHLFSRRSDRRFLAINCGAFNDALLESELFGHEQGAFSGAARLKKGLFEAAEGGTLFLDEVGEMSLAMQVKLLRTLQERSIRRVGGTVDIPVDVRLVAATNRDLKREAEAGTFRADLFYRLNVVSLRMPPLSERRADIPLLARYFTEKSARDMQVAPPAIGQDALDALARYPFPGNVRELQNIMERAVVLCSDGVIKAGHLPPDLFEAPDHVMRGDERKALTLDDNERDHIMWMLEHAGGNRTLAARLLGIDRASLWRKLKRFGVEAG

For data set [4], the target named is T4, DVU2588 response regulator (Desulfovibrio vulgaris Hildenborough, UniProt Q728L5 1-226).
T4 sequence: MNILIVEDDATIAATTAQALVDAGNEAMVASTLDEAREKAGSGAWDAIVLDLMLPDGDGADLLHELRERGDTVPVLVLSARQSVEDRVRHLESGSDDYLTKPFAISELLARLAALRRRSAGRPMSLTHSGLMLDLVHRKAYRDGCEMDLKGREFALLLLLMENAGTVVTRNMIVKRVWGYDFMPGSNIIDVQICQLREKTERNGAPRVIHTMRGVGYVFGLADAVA

For data set [5], the target named is T5, DVU3381 response regulator (Desulfovibrio vulgaris Hildenborough, UniProt Q725P3 1-459).
T5 sequence: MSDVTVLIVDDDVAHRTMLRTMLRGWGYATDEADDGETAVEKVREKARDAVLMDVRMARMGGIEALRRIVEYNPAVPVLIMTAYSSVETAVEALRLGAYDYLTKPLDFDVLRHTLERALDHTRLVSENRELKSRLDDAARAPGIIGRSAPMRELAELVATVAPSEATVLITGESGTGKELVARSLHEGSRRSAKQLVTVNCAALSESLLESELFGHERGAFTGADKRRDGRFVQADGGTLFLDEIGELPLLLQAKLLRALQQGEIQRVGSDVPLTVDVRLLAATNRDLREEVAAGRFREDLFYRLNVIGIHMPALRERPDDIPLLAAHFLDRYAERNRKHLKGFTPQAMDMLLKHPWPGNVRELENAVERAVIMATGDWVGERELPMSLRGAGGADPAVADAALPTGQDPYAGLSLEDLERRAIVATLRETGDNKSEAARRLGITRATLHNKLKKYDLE

The target of data set [6] is T6, DVU2934 response regulator (Desulfovibrio vulgaris Hildenborough, UniProt Q727C1 1-472).
T6 sequence: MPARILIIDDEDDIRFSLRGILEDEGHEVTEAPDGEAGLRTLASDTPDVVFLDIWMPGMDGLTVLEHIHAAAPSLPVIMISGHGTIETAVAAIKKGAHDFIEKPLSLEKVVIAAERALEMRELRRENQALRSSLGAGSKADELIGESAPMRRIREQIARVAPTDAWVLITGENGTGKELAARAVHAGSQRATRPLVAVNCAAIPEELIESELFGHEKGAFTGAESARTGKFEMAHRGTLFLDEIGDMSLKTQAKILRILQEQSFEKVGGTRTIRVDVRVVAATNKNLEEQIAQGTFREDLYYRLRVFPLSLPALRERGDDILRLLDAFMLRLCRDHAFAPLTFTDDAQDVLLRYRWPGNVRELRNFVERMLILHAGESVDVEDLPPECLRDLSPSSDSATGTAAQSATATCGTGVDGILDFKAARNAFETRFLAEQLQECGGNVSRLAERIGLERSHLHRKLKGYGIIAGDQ

The target of data set [7] is T7, DVU0679 response regulator (Desulfovibrio vulgaris Hildenborough, UniProt Q72E99 1-488).
T7 sequence: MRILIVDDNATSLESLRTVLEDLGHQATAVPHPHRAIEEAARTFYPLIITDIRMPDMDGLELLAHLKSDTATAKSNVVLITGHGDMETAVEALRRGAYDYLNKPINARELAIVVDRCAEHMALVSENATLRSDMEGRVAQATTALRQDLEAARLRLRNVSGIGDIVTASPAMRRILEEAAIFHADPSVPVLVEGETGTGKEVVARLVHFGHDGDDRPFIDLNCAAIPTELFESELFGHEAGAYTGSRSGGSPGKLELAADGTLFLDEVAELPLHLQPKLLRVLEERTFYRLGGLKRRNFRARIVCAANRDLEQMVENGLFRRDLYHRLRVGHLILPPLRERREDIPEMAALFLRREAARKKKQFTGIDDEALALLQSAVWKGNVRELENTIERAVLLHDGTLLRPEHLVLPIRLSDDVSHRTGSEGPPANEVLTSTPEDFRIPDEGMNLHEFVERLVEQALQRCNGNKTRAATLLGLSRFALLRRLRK

For data set [8], the target named is T8, DVU3023 response regulator (Desulfovibrio vulgaris Hildenborough, UniProt Q726T3 1-474).
T8 sequence: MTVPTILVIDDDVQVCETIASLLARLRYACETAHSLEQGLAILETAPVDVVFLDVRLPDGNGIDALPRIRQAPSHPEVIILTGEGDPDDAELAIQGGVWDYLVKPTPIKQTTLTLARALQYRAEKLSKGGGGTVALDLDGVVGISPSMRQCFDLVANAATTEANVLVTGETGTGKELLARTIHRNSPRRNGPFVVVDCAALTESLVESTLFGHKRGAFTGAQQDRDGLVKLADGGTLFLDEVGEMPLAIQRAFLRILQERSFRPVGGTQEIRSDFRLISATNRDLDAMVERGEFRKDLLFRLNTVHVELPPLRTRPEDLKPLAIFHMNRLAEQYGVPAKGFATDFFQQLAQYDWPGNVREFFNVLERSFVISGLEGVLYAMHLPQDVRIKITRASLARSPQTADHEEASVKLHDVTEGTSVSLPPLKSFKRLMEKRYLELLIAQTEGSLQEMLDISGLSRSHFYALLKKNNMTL

The target in data set [9] is T9, DVU1083 response regulator (PhoB) (Desulfovibrio vulgaris Hildenborough, UniProt Q72D47 1-229).
T9 sequence: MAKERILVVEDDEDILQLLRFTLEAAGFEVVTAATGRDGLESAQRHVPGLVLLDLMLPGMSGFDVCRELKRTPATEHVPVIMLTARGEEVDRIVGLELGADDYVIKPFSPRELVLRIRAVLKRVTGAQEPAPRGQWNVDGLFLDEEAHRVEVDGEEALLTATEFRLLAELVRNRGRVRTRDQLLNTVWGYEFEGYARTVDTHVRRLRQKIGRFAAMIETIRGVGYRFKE

B1: DVU0943 second site mut (dsDNA)
DNA 1: AAAGGGCTCGACAACAGATGTTCCATGCAAA
DNA 2: TTTGCATGGAACATCTGTTGTCGAGCCCTTT
Regarding B1, the binding result in data set [1] and in [2] was “no binding” each time.

B2: DVU3303 motif mut (dsDNA)
DNA 1: AAAGCCTCGTCATGGGATATCGTACACGAGGCCAC
DNA 2: GTGGCCTCGTGTACGATATCCCATGACGAGGCTTT
Consider B2, for which the binding result in data set [3] is “no binding”.

B3: DVU0943 DVU2588-motif mut (dsDNA)
DNA 1: CGTCCTGCACCTAATCATTCTTAAGTTAAAAGCTGT
DNA 2: ACAGCTTTTAACTTAAGAATGATTAGGTGCAGGACG
With B3, in [4], the binding result is “no binding”.

B4: DVU3384 motif mut (dsDNA)
DNA 1: CACGAATGGAATGTATTTTTCTTGCACCCATACAC
DNA 2: GTGTATGGGTGCAAGAAAAATACATTCCATTCGTG
Regarding B4, in [5], the binding result was “no binding”.

B5: DVU2917 motif mut (dsDNA)
DNA 1: CTCGCCATGTGGACTGCAGAAGAGAGACTGTGCGTGG
DNA 2: CCACGCACAGTCTCTCTTCTGCAGTCCACATGGCGAG
Regarding B5, in [6], the binding result is on record as “no binding”.

B6: DVU0677 motif mut (dsDNA)
DNA 1: AATCGCACGCGGAGAGTATTCGGATGTGCTTTTCCG
DNA 2: CGGAAAAGCACATCCGAATACTCTCCGCGTGCGATT
As to B6, the binding result in [7] is “no binding”.

B7: DVU3025 motif mut (dsDNA)
DNA 1: GCCACACGAACTGCGCTTTTCAATCAACGCTACCAC
DNA 2: GTGGTAGCGTTGATTGAAAAGCGCAGTTCGTGTGGC
For the molecule B7, the binding result in [8] is given as “no binding”.

B8: DVU1083 motif mut (dsDNA)
DNA 1: GTTGTAAAATGACAAACGGTTCTAGACGCTCTTCCA
DNA 2: TGGAAGAGCGTCTAGAACCGTTTGTCATTTTACAAC
For the molecule B8, the binding result in data set [9] is “no binding”.
